# Patent US20220089678A1 (CARTESIAN THERAPEUTICS, published 2022)
# T1: phycoerythrin (PE)-conjugated BCMA (Recombinant Human TNFRSF17 protein, Fc/His-tagged, R-PE labeled); Creative … (human, UniProt Q02223 1-54, R-PE labeled)
# T1 construct: Bought reagent; also called BCMA-PE; not shown: Fc/His tag of the bought reagent
# T1 sequence: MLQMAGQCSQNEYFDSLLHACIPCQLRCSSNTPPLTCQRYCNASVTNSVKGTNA
# Target: T1, phycoerythrin (PE)-conjugated BCMA …
# Assay: flow cytometry; CAR T cells stained with BCMA-PE, 3 days after electroporation
# Description: CAR T cells obtained from the above-described process were tested for viability, CAR protein expression, BCMA binding, and cytotoxicity, i.e., the ability to kill BCMA+ myeloma (tumor) cells. Viability, CAR expression, and BCMA binding were determined by flow cytometry on a GUAVA® […]® 12HT Flow cytometer (EMD Millipore). To test viability, a sample of the CAR T cells was mixed with propidium iodide and run on the flow cytometer with electronic gating on fluorescence in the near infrared channel. To test CAR protein expression and BCMA binding, a sample of the CAR T cells was incubated with 0.4 ug/mL of phycoerythrin (PE)-conjugated BCMA (Recombinant Human TNFRSF17 protein, Fc/His-tagged, R-PE labeled; Creative Biomart, Shirley, N.Y.). CAR expression was assessed on the flow cytometer with electronic gating on fluorescence in the yellow channel to detect presence or absence of emission from BCMA-PE on CAR-positive and CAR-negative cells. BCMA binding was determined by measuring the intensity of fluorescence in the yellow channel to determine the relative quantity of BCMA-PE bound to labelled CAR-positive cells. For the viability, expression, and BCMA binding assays, CD8+ T cells electroporated without mRNA (CAR-negative T Cells) were tested as a parallel control.
# Numerous CAR-encoding mRNA constructs were prepared using the mRNA construct of SEQ ID: 29 as a starting point (which encodes a CAR of sequence SEQ ID: 19 and comprises the scFv of sequence SEQ ID: 48). These constructs encoded the same or substantially the same amino acid residues in the scFv complementary-determining regions (CDRs) but varied with respect to the amino acid residues in the scFv framework regions. In making these variations, the experimenter's intent was to humanize the scFv framework regions without reducing BCMA-binding and tumor-killing properties of CAR T cells that express the CAR. For each of the mRNA constructs, CAR T cells were prepared by transfection into human CD8+ cells, substantially as described in Example 1. The CAR T cells made from each mRNA construct were then tested 3 days after electroporation for BCMA binding and/or tumor killing, as substantially described in Example 1.
Binder,BCMA Binding (relative to SEQ ID: 48),BCMA Binding (relative to SEQ ID: 54),BCMA Binding
"CAR comprising scFv-Yi1 (SEQ ID NO: 54) (other, CAR on mRNA-electroporated human CD8+ T cells; not shown: rest of the CAR (hinge, transmembrane, cytoplasmic domains) not specified for this construct) DIVLTQSPSSLSASVGDRATISCRASESVTILGSHLIHWYQQKPGQAPKLLIQLASNVQTGVPARFSGSGSGTDFTLTISSVEPDDVAVYYCLQSRTIPRTFGGGTKLEIKGSTSGSGKPGSGEGSTKGQIQLVQSGPELKKPGGSVKISCAASGYTFTDYSINWVKQAPGKGLEWVGWINTETREPAYAYDFRGRFTFSLDTSKSTAYLQMNSLRAEDTAVYYCALDYSYAMDYWGQGTLVTVSS",141 relative to SEQ ID: 48 = 100,100 relative to SEQ ID: 54 = 100,–
"CAR comprising scFv-J2 (SEQ ID NO: 50) (other, CAR on mRNA-electroporated human CD8+ T cells; Only the scFv is identified; not shown: rest of the CAR (hinge, transmembrane, cytoplasmic domains) not specified for this construct) DIVLTQSPASLAVSLGERATISCRASESVSILGSHLLHWYQQKPGQPPKLLIYLASNLQTGVPARFSGSGSGTDFTLTISSLEAEDVAVYYCLQSRTIPRTFGQGTKLEIKGSTSGSGKPGSGEGSTKGQIQLVQSGAEVKKPGASVKISCKASGYTFTDYSINWVRQAPGQGLEWMGWINTETREPAYAYDFRGRVTMTRDTSASTAYLQISSLKAEDTAVYFCALDYSYAMDYWGQGSLVTVSS",51 relative to SEQ ID: 48 = 100,–,–
"CAR comprising scFv-J1 (SEQ ID NO: 49) (other, CAR on mRNA-electroporated human CD8+ T cells; Only the scFv is identified; not shown: rest of the CAR (hinge, transmembrane, cytoplasmic domains) not specified for this construct) DIVMTQSPDSLSVSLGERATINCRASESVTILGSHLIHWYQQKPGQPPKLLIQLASNVQTGVPDRFSGSGSGTDFTLTISSLQAEDVAVYYCLQSRTIPRTFGGGTKVEIKGSTSGSGKPGSGEGSTKGQIQLVQSGAEVKKPGASVKISCKASGYTFTDYSINWVRQAPGQGLEWMGWINTETREPAYAYDFRGRVTMTRDTSASTAYLQISSLKAEDTAVYFCALDYSYAMDYWGQGSLVTVSS",76 relative to SEQ ID: 48 = 100,–,–
"CAR comprising scFv-J3 (SEQ ID NO: 51) (other, CAR on mRNA-electroporated human CD8+ T cells; Only the scFv is identified; not shown: rest of the CAR (hinge, transmembrane, cytoplasmic domains) not specified for this construct) DIVLTQSPASLAVSLGKRATISCRASESVTILGSHLIHWYQQKPGQPPKLLIYLASNVQTGVPARFSGSGSGTDFTLTISSLEAEDVAVYYCLQSRTIPRTFGQGTKLEIKGSTSGSGKPGSGEGSTKGQVQLVQSGAEVKKPGASVKISCKASGYTFTDYSINWVRQAPGQGLEWMGWINTETREPAYAYDFRGRVTMTRDTSASTAYLQISSLKAEDTAVYFCALDYSYAMDYWGQGSLVTVSS",54 relative to SEQ ID: 48 = 100,–,–
"CAR comprising scFv-J5 (SEQ ID NO: 53) (other, CAR on mRNA-electroporated human CD8+ T cells; Only the scFv is identified; not shown: rest of the CAR (hinge, transmembrane, cytoplasmic domains) not specified for this construct) DIVLTQSPASLAVSLGERATISCRASESVSILGSHYLAWYQQKPGQPPKLLIYLASNLQTGVPARFSGSGSGTDFTLTISSLEAEDVAVYYCQQSRTIPRTFGQGTKLEIKGSTSGSGKPGSGEGSTKGQIQLVQSGAEVKKPGESVKISCKASGYTFTDYSINWVRQAPGQGLKWMGWINTETREPAYAYDFRGRFAFSLDTSASTAYLQISSLKAEDTAVYFCALDYSYAMDYWGQGTLVTVSS",103 relative to SEQ ID: 48 = 100,–,–
"CAR comprising scFv-J4 (SEQ ID NO: 52) (other, CAR on mRNA-electroporated human CD8+ T cells; Only the scFv is identified; not shown: rest of the CAR (hinge, transmembrane, cytoplasmic domains) not specified for this construct) DIVMTQSPDSLSVSLGERATINCRASESVTILGSHLIHWYQQKPGQPPKLLIQLASNVQTGVPDRFSGSGSGTDFTLTISSLQAEDVAVYYCLQSRTIPRTFGGGTKVEIKGSTSGSGKPGSGEGSTKGQIQLVQSGAEVKKPGESVKISCKASGYTFTDYSINWVRQAPGQGLKWMGWINTETREPAYAYDFRGRFAFSLDTSASTAYLQISSLKAEDTAVYFCALDYSYAMDYWGQGTLVTVSS",82 relative to SEQ ID: 48 = 100,–,–
"CAR comprising scFv-Yi2 (SEQ ID NO: 55) (other, CAR on mRNA-electroporated human CD8+ T cells; Only the scFv is identified; not shown: rest of the CAR (hinge, transmembrane, cytoplasmic domains) not specified for this construct) DIQLTQSPSSLSASVGDRVTITCRASQSVTILGSHLIHWYQQKPGKAPKLLIQLASNVQTGVPSRFSGSGSGTDFTLTISSLQPEDVATYYCLQSRTIPRTFGQGTKLEIKGSTSGSGKPGSGEGSTKGQVQLVQSGGGLVQPGRSVKLSCAASGYTFTDYSINWVRQAPGKGLEWVGWINTETREPAYAYDFRGRFTISRDTSKNTAYLQMNSLRAEDTAVYYCARDYSYAMDYWGQGTLVTVSS",12 relative to SEQ ID: 48 = 100,–,–
"CAR comprising scFv-CAS2 (C2) (SEQ ID NO: 61) (other, CAR on mRNA-electroporated human CD8+ T cells; Only the scFv is identified; not shown: rest of the CAR (hinge, transmembrane, cytoplasmic domains) not specified for this construct) DIVLTQSPASLAVSPGQRATISCRASESVTILGSHLIHWYQQKPGQPPKLLIQLASNVQTGVPARFSGSGSRTDFTLTISSLEPEDVAVYYCLQSRTIPRTFGQGTKVEIKGSTSGSGKPGSGEGSTKGQITLKESGPTLVKPTQTLTLSCKASGYTFTDYSINWVRRAPGKGLEWMGWINTETREPAYAYDFRGRFVFSLDTSVSMAYLQISSLKAEDTAVYYCALDYSYAMDYWGQGTLVTVSS",–,–,34 relative (SEQ ID: 48 = 100)
